According to the supplement of paper PMC9233669:
This sample holds only a part of the variants without activity.

How the values were obtained:
biotinyl-Phe-oxazolone = test: self-aminoacylation, catalytic enhancement (BFO) (fold over background); higher = more active; k-Seq, kA / k0A0; sequences stand for … in GGGAAUGGAUCCACAUCUACGAAUUC…UUCACUGCAGACUUGACGAAGCUG
Method in brief: (§1)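 The uncatalyzed rate is the low-activity peak of a bimodal Gaussian fit, and catalytic enhancement is median kA divided by it. The kA values came from pseudo-first-order fits, with 1000 bootstraps, of per-sequence fraction reacted measured by streptavidin capture, triplicate qPCR and Illumina sequencing. Mutagenized RNA pools with a 21-nt variable region (0.43 μM) were reacted with each biotinyl-aminoacyl-oxazolone at 2–1250 μM in 50 μL HEPES/NaCl/KCl/MgCl2/CaCl2 buffer with 5% acetonitrile, pH 6.9–7.0, for 90 minutes at room temperature.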

biotinyl-Ile-oxazolone = test: self-aminoacylation, catalytic enhancement (BIO) (fold over background); higher = more active; k-Seq, kA / k0A0; sequences stand for … in GGGAAUGGAUCCACAUCUACGAAUUC…UUCACUGCAGACUUGACGAAGCUG
Method in brief: as §1

biotinyl-Met-oxazolone = test: self-aminoacylation, catalytic enhancement (BMO) (fold over background); higher = more active; k-Seq, kA / k0A0; sequences stand for … in GGGAAUGGAUCCACAUCUACGAAUUC…UUCACUGCAGACUUGACGAAGCUG
Method in brief: as §1

biotinyl-Val-oxazolone = test: self-aminoacylation, catalytic enhancement (BVO) (fold over background); higher = more active; k-Seq, kA / k0A0; sequences stand for … in GGGAAUGGAUCCACAUCUACGAAUUC…UUCACUGCAGACUUGACGAAGCUG
Method in brief: as §1

biotinyl-Leu-oxazolone = test: self-aminoacylation, catalytic enhancement (BLO) (fold over background); higher = more active; k-Seq, kA / k0A0; sequences stand for … in GGGAAUGGAUCCACAUCUACGAAUUC…UUCACUGCAGACUUGACGAAGCUG
Method in brief: as §1

biotinyl-Trp-oxazolone = test: self-aminoacylation, catalytic enhancement (BWO) (fold over background); higher = more active; k-Seq, kA / k0A0; sequences stand for … in GGGAAUGGAUCCACAUCUACGAAUUC…UUCACUGCAGACUUGACGAAGCUG
Method in brief: as §1

| Sequence | self-aminoacylation (biotinyl-Phe-oxazolone) | self-aminoacylation (biotinyl-Ile-oxazolone) | self-aminoacylation (biotinyl-Met-oxazolone) | self-aminoacylation (biotinyl-Val-oxazolone) | self-aminoacylation (biotinyl-Leu-oxazolone) | self-aminoacylation (biotinyl-Trp-oxazolone) |
| --- | --- | --- | --- | --- | --- | --- |
| CCACACGUCAAGAAAUCGGUC [Fam1B.1 aminoacylation ribozyme variant] | 1.01 | 1.28 | 1.17 | 1.44 | 1.28 | 0.951 |
| AAGUUUGCAAAUAGUCUCAAG [Fam3.1 aminoacylation ribozyme variant] | 0.972 | 0.987 | 1.12 | 0.772 | 0.747 | 0.81 |
| AUUACCAUGGUCAUCGAGCGA [Fam2.1 aminoacylation ribozyme variant] | 1.04 | 1.73 | 2.24 | 1.79 | 1.98 | 1.64 |
| AUUCUCCUAGGUCUUCGGGUG [Fam2.2 aminoacylation ribozyme variant] | 44.1 | 4.96 | 7.28 | 4.77 | 8.25 | 7.39 |
| CUACUUCAUACAAUCGGUCUU [Fam1A.1 aminoacylation ribozyme variant] | 0.932 | 1.01 | 0.724 | 0.972 | 0.844 | 0.491 |
| CUACUUCAAACAAUCGGUUGG [Fam1A.1 aminoacylation ribozyme variant] | 3.55 | 0.843 | 0.619 | 0.812 | 0.788 | 1.82 |
| AAGUUUGCUAAUAGUCACAAC [Fam3.1 aminoacylation ribozyme variant] | 1.47 | 0.673 | 0.6 | 0.621 | 0.637 | 0.593 |
| CCACCCUUCAAGCAAUAGGUC [Fam1B.1 aminoacylation ribozyme variant] | 0.807 | 0.645 | 0.575 | 0.711 | 0.529 | 0.452 |
| AUUCGGCUAGGUCAUCGGGUG [Fam2.2 aminoacylation ribozyme variant] | 24.4 | 3.06 | 3.87 | 3.7 | 4.58 | 4.77 |
| AAGUUAGCUAAUAGUCGCCAG [Fam3.1 aminoacylation ribozyme variant] | 1.48 | 1.91 | 2.09 | 1.33 | 1.67 | 3.82 |
| AUUACCCUGGUCAUCCAGGGA [Fam2.1 aminoacylation ribozyme variant] | 7.32 | 1.91 | 2.82 | 1.67 | 1.84 | 2.26 |
| CCACCCUUCAAGCAAUCAGUC [Fam1B.1 aminoacylation ribozyme variant] | 5.72 | 0.736 | 0.672 | 0.828 | 0.775 | 1.94 |
| AUUAGCCUGGUCACCGAGUGA [Fam2.1 aminoacylation ribozyme variant] | 58.3 | 4.14 | 8.98 | 4.65 | 11.5 | 11.4 |
| AUUCGCUUAGGUCAUCGGGUG [Fam2.2 aminoacylation ribozyme variant] | 52.5 | 4.11 | 7.02 | 4.24 | 8 | 6.47 |
| CCACGGUUCAAGCAAUCGGUC [Fam1B.1 aminoacylation ribozyme variant] | 2.64 | 1.08 | 1.02 | 1.22 | 1.07 | 2.21 |
| AAGUAUGCUAAUCGUCGCAAG [Fam3.1 aminoacylation ribozyme variant] | 2.35 | 1.81 | 1.71 | 1.56 | 1.37 | 1.76 |
| AAGUUUGCUAAUAAUCGCAAG [Fam3.1 aminoacylation ribozyme variant] | 1.6 | 0.735 | 0.637 | 0.746 | 0.602 | 0.876 |
| AAUUUCGCUAAUAGUCGCAAG [Fam3.1 aminoacylation ribozyme variant] | 2.64 | 2.19 | 1.94 | 1.88 | 2.24 | 1.9 |
| CCCCUUCAAACAAUCGGUCUG [Fam1A.1 aminoacylation ribozyme variant] | 185 | 1.79 | 2.05 | 2.44 | 3.29 | 72.5 |
| CUACUUCACACAAUCGGUCUA [Fam1A.1 aminoacylation ribozyme variant] | 0.822 | 0.72 | 0.626 | 0.834 | 0.802 | 0.777 |
| AUUCACCUGGGGCAUCGGGUG [Fam2.2 aminoacylation ribozyme variant] | 36.1 | 4.42 | 5.8 | 6.59 | 5.93 | 7.38 |
| CUACUUCAACGAAUCGGUCUG [Fam1A.1 aminoacylation ribozyme variant] | 4.58 | 0.847 | 0.753 | 0.833 | 1.02 | 3.92 |
| AUUACCGUCGUCAUCGAGUGA [Fam2.1 aminoacylation ribozyme variant] | 8.91 | 2.36 | 3.23 | 2.3 | 3.42 | 3.88 |
| CUACUUCAAACAAUCGGACUA [Fam1A.1 aminoacylation ribozyme variant] | 1.13 | 0.831 | 0.579 | 0.744 | 0.617 | 0.655 |
| AAGUUCGAUAAUAGUCGCAAG [Fam3.1 aminoacylation ribozyme variant] | 2.51 | 1.44 | 1.39 | 1.28 | 1.55 | 1.33 |
| CUACUUCAAACAUUCUGUCUG [Fam1A.1 aminoacylation ribozyme variant] | 0.851 | 0.822 | 0.7 | 0.79 | 0.727 | 0.543 |

| Sequence | self-aminoacylation (biotinyl-Phe-oxazolone) | self-aminoacylation (biotinyl-Ile-oxazolone) | self-aminoacylation (biotinyl-Met-oxazolone) | self-aminoacylation (biotinyl-Val-oxazolone) | self-aminoacylation (biotinyl-Leu-oxazolone) | self-aminoacylation (biotinyl-Trp-oxazolone) |
| --- | --- | --- | --- | --- | --- | --- |
| AUUACCCUGUUCUUCGAGUGA [Fam2.1 aminoacylation ribozyme variant] | 23.3 | 3.05 | 5.6 | 3.41 | 5.58 | 7.83 |
| AUUACCCUGCUCAUCGAAUGA [Fam2.1 aminoacylation ribozyme variant] | 0.772 | 0.867 | 0.845 | 0.974 | 0.735 | 1.32 |
| CUGCUUCAAACAAUCGGGCUG [Fam1A.1 aminoacylation ribozyme variant] | 38.7 | 2.2 | 2.66 | 2.33 | 3.18 | 36.1 |
| CCACACUUCAACCAAUCUGUC [Fam1B.1 aminoacylation ribozyme variant] | 0.77 | 0.426 | 0.419 | 0.607 | 0.377 | 0.369 |
| AUUCACCUACGUCCUCGGGUG [Fam2.2 aminoacylation ribozyme variant] | 33.2 | 2.7 | 4.71 | 2.12 | 7.17 | 4.21 |
| AUUCACCUAGGUCAUCGGGCU [Fam2.2 aminoacylation ribozyme variant] | 37.6 | 5.03 | 8.6 | 4.55 | 12.4 | 6.09 |
| GUUUCCCUGGUCAUCGAGUGA [Fam2.1 aminoacylation ribozyme variant] | 48.7 | 6.97 | 14.6 | 7.85 | 14.8 | 16.2 |
| UGUCACCUAGGUCAUCGGGUG [Fam2.2 aminoacylation ribozyme variant] | 23.9 | 3.84 | 4.27 | 3.6 | 3.64 | 5.31 |
| CCACACUUAAUGCAAUCGGUC [Fam1B.1 aminoacylation ribozyme variant] | 0.949 | 0.855 | 0.752 | 0.763 | 0.693 | 0.642 |
| AAGCUUGCUAAUAGGCGCAAG [Fam3.1 aminoacylation ribozyme variant] | 1.46 | 1.38 | 1.12 | 1.16 | 1.66 | 1.2 |
| CAGUUUGCAAAUAGUCGCAAG [Fam3.1 aminoacylation ribozyme variant] | 2.37 | 1.72 | 1.65 | 1.52 | 2.03 | 2.02 |
| AUUCACCUAGGUCAGGGGGUG [Fam2.2 aminoacylation ribozyme variant] | 13.9 | 1.78 | 2.67 | 1.8 | 3.4 | 2.55 |
| CAGUUUGCUAAUAGUAGCAAG [Fam3.1 aminoacylation ribozyme variant] | 2.46 | 1.26 | 1.58 | 1.04 | 1.5 | 1.65 |
| AUUAGCCUGGUCAUCCAGUGA [Fam2.1 aminoacylation ribozyme variant] | 10.8 | 2.69 | 4.07 | 2.62 | 4.36 | 5.21 |
| CCACACUUCAAGCAAUCUGCC [Fam1B.1 aminoacylation ribozyme variant] | 0.603 | 0.806 | 1.3 | 1.05 | 0.787 | 0.628 |
| AUUCACCCAGGCCAUCGGGUG [Fam2.2 aminoacylation ribozyme variant] | 34.1 | 3.35 | 3.79 | 3.7 | 6.14 | 5.24 |
| CUUCUUCAAGCAAUCGGUCUG [Fam1A.1 aminoacylation ribozyme variant] | 3.14 | 0.745 | 0.909 | 0.944 | 0.978 | 2.18 |
| AAGUUUGCUAAUAGGCGCAAU [Fam3.1 aminoacylation ribozyme variant] | 1.52 | 1.6 | 1.71 | 1.58 | 1.46 | 0.968 |
| AAUUUUGCAAAUAGUCGCAAG [Fam3.1 aminoacylation ribozyme variant] | 2.73 | 2.33 | 2.02 | 2.31 | 1.51 | 2.48 |
| AUUCACCUACGUCAUCGUGUG [Fam2.2 aminoacylation ribozyme variant] | 0.74 | 0.632 | 0.602 | 0.818 | 0.86 | 0.425 |
| AUUACGAUGGUCAUCGAGUGA [Fam2.1 aminoacylation ribozyme variant] | 12.3 | 2.99 | 3.43 | 3.17 | 4.54 | 4.79 |
| AUUACCCUGGUCACCGAGUGC [Fam2.1 aminoacylation ribozyme variant] | 3.95 | 1.76 | 1.43 | 1.45 | 2.61 | 2.11 |
| AAGUUCGCUAAUGGUCGCAAG [Fam3.1 aminoacylation ribozyme variant] | 4.06 | 1.55 | 1.33 | 1.5 | 1.8 | 1.62 |
| AUUACCCUAGUAAUCGAGUGA [Fam2.1 aminoacylation ribozyme variant] | 46.5 | 3.08 | 6.75 | 3.18 | 7.45 | 9.47 |
| AUUCACCUGGGUCAUCGGGUA [Fam2.2 aminoacylation ribozyme variant] | 47.8 | 8.3 | 18.6 | 10.6 | 22.3 | 14.8 |
